Sequences and labels used below:
B1: GpH7-A5/GpH7-B3 variant S298_02A/GpL16-k0 (antibody, human IgG1, kappa)
heavy 1: not shown
heavy 2: not shown
light: DIVMTQSPLSLPVTPGEPASISCQASESLVHSNRNTYLHWYLQKPGQSPQLLIYKVSNRFSGVPDRFSGSGSGTDFTLKISRVEAEDVGVYYCSQNTHVPPTFGQGTKVEIERTVAAPSVFIFPPSDEQLKSGTASVVCLLNNFYPREAKVQWKVDNALQSGNSQESVTEQDSKDSTYSLSSTLTLSKADYEKHKVYACEVTHQGLSSPVTKSFNRGEC
notes: also called He Ab S298_02A; GpH7-A5/GpH7-B3-15-02A/GpL16-k0
B2: GpH7-A5/GpH7-B3 variant S298_07I/GpL16-k0 (antibody, human IgG1, kappa)
heavy 1: not shown
heavy 2: not shown
light: B1 light
notes: also called He Ab S298_07I
B3: GpH7-A5/GpH7-B3 variant S298_08L/GpL16-k0 (antibody, human IgG1, kappa)
heavy 1: not shown
heavy 2: not shown
light: B1 light
notes: also called He Ab S298_08L
B4: GpH7-A5/GpH7-B3 variant Q295_02A/GpL16-k0 (antibody, human IgG1, kappa)
heavy 1: not shown
heavy 2: not shown
light: B1 light
notes: also called He Ab Q295_02A
B5: GpH7-A5/GpH7-B3 variant Q295_08L/GpL16-k0 (antibody, human IgG1, kappa)
heavy 1: not shown
heavy 2: not shown
light: B1 light
notes: also called He Ab Q295_08L
B6: GpH7-A5/GpH7-B3 variant Q295_04F/GpL16-k0 (antibody, human IgG1, kappa)
heavy 1: not shown
heavy 2: not shown
light: B1 light
notes: also called He Ab Q295_04F
B7: GpH7-A5/GpH7-B3 variant P271_04F/GpL16-k0 (antibody, human IgG1, kappa)
heavy 1: not shown
heavy 2: not shown
light: B1 light
notes: also called He Ab P271_04F
B8: GpH7-A5/GpH7-B3 variant S267_02A/GpL16-k0 (antibody, human IgG1, kappa)
heavy 1: not shown
heavy 2: not shown
light: B1 light
notes: also called He Ab S267_02A
B9: GpH7-A5/GpH7-B3 variant S239_19Q/GpL16-k0 (antibody, human IgG1, kappa)
heavy 1: not shown
heavy 2: not shown
light: B1 light
notes: also called He Ab S239_19Q
B10: GpH7-A5/GpH7-B3 variant S298_06M/GpL16-k0 (antibody, human IgG1, kappa)
heavy 1: not shown
heavy 2: not shown
light: B1 light
notes: also called He Ab S298_06M
B11: GpH7-A5/GpH7-B3 variant S298_03V/GpL16-k0 (antibody, human IgG1, kappa)
heavy 1: not shown
heavy 2: not shown
light: B1 light
notes: also called He Ab S298_03V
B12: GpH7-B3 variant S337_15Y/GpL16-k0 (antibody, human IgG1, kappa)
heavy: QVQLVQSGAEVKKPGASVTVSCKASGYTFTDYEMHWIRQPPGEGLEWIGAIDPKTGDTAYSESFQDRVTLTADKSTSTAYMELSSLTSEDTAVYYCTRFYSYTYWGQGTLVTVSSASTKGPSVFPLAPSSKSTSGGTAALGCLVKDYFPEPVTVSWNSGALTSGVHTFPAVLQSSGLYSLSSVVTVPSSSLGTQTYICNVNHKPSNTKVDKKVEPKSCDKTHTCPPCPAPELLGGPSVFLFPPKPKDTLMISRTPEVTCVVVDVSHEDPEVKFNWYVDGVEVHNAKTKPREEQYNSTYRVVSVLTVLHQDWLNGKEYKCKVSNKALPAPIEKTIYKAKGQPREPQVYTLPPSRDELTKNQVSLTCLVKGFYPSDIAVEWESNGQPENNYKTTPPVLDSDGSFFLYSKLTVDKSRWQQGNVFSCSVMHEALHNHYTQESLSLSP
light: B1 light
notes: also called Ho Ab S337_15Y
B13: GpH7-B3 variant T335_07I/GpL16-k0 (antibody, human IgG1, kappa)
heavy: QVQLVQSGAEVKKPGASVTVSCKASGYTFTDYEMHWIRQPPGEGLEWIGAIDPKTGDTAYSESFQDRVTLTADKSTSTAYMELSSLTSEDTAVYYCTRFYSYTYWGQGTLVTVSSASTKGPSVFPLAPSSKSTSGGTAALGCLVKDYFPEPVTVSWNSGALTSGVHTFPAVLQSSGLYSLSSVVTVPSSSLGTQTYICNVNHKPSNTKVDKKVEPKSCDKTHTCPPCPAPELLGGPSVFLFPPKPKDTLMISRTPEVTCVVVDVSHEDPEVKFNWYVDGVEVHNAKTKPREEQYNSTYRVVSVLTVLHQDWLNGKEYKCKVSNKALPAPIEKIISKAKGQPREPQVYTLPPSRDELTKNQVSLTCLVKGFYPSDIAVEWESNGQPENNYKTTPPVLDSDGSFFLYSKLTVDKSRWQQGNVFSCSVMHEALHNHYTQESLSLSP
light: B1 light
notes: also called Ho Ab T335_07I
B14: GpH7-B3 variant Y300_12R/GpL16-k0 (antibody, human IgG1, kappa)
heavy: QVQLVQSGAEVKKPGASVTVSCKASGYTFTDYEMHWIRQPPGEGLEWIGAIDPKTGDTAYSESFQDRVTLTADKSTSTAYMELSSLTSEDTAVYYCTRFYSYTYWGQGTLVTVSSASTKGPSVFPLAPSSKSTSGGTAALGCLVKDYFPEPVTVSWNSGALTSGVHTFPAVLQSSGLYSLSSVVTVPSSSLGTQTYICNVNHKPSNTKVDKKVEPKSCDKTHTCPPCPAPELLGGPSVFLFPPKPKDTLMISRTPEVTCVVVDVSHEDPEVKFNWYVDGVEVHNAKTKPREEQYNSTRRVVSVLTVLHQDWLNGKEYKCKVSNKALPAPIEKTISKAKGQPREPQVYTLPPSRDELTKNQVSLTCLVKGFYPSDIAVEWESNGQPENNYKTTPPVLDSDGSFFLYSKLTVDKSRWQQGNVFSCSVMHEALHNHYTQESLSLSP
light: B1 light
notes: also called Ho Ab Y300_12R
B15: GpH7-B3 variant T335_11K/GpL16-k0 (antibody, human IgG1, kappa)
heavy: not shown
light: B1 light
notes: also called Ho Ab T335_11K
B16: GpH7-B3 variant T335_05P/GpL16-k0 (antibody, human IgG1, kappa)
heavy: not shown
light: B1 light
notes: also called Ho Ab T335_05P
B17: GpH7-B3 variant S337_20W/GpL16-k0 (antibody, human IgG1, kappa)
heavy: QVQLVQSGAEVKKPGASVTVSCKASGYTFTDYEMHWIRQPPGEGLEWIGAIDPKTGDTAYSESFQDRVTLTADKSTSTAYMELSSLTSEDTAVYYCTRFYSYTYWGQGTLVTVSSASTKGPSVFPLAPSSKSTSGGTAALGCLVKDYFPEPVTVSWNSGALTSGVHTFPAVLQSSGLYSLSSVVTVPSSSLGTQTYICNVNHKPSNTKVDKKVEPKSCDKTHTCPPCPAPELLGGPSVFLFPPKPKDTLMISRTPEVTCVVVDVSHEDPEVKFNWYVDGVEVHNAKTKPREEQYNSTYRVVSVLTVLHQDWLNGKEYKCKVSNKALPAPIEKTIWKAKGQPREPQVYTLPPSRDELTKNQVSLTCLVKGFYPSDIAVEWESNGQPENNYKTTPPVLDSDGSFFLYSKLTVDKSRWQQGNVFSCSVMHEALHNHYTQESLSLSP
light: B1 light
notes: also called Ho Ab S337_20W
B18: GpH7-B3 variant T335_10E/GpL16-k0 (antibody, human IgG1, kappa)
heavy: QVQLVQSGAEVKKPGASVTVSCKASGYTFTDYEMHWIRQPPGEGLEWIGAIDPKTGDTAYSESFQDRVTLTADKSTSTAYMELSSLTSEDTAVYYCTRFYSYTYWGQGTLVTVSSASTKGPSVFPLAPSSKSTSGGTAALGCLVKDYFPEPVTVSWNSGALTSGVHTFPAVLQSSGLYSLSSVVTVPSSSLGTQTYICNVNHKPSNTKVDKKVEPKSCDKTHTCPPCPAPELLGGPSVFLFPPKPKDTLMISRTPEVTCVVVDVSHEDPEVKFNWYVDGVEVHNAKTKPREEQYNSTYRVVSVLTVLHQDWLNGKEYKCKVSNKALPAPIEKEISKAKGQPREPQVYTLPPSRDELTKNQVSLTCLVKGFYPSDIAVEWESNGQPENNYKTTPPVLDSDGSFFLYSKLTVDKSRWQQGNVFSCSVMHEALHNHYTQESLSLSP
light: B1 light
notes: also called Ho Ab T335_10E
B19: GpH7-B3 variant S337_19Q/GpL16-k0 (antibody, human IgG1, kappa)
heavy: not shown
light: B1 light
notes: also called Ho Ab S337_19Q
B20: GpH7-B3 variant T335_04F/GpL16-k0 (antibody, human IgG1, kappa)
heavy: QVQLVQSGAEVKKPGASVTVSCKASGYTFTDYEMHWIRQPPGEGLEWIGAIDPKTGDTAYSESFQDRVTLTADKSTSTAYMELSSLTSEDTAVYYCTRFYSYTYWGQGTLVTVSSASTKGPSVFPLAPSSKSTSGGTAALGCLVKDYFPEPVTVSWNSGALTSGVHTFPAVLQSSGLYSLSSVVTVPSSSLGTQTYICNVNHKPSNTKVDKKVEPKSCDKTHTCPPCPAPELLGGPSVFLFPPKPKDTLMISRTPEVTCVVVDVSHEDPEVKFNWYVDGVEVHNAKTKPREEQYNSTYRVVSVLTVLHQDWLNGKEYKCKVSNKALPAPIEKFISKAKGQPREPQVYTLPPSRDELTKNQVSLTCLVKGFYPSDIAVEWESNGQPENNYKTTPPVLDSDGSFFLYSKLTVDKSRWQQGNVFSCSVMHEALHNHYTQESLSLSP
light: B1 light
notes: also called Ho Ab T335_04F
B21: GpH7-B3 variant T335_12R/GpL16-k0 (antibody, human IgG1, kappa)
heavy: not shown
light: B1 light
notes: also called Ho Ab T335_12R
B22: GpH7-B3 variant T335_08L/GpL16-k0 (antibody, human IgG1, kappa)
heavy: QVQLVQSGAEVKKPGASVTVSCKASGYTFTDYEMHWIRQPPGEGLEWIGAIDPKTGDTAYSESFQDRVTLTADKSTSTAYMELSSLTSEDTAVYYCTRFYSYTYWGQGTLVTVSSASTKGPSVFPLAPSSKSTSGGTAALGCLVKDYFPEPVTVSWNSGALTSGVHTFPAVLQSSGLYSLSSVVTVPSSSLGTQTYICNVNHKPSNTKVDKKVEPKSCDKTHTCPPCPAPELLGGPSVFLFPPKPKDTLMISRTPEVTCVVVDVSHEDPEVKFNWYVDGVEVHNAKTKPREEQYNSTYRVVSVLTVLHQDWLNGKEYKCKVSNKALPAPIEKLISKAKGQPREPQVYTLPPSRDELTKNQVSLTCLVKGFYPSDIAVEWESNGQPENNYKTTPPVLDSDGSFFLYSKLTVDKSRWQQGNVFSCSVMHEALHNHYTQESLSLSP
light: B1 light
notes: also called Ho Ab T335_08L
B23: GpH7-B3 variant T335_09D/GpL16-k0 (antibody, human IgG1, kappa)
heavy: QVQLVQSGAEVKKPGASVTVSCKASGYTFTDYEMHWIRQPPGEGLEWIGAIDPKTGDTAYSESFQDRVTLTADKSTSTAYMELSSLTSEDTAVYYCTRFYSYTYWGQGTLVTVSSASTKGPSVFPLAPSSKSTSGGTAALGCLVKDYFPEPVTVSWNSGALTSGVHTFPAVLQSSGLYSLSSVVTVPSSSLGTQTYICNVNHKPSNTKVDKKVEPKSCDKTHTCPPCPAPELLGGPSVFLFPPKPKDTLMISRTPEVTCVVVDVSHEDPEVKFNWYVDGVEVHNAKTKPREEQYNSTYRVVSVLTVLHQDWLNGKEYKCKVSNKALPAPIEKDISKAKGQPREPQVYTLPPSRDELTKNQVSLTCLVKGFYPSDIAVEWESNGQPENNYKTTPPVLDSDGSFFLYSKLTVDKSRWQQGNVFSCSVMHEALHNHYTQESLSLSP
light: B1 light
notes: also called Ho Ab T335_09D
B24: GpH7-B3 variant V266_19Q/GpL16-k0 (antibody, human IgG1, kappa)
heavy: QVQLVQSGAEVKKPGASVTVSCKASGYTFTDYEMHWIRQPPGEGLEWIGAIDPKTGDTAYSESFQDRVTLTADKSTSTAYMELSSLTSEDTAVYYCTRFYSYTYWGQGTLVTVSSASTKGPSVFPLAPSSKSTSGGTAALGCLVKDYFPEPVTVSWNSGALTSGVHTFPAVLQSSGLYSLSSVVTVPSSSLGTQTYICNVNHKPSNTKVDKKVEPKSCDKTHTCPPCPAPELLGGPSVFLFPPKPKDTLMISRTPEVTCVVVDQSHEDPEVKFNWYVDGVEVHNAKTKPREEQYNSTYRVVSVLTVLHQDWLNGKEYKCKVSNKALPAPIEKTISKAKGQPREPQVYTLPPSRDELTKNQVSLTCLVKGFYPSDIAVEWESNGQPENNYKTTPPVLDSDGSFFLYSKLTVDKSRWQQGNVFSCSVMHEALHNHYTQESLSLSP
light: B1 light
notes: also called Ho Ab V266_19Q
B25: GpH7-B3 variant T335_06M/GpL16-k0 (antibody, human IgG1, kappa)
heavy: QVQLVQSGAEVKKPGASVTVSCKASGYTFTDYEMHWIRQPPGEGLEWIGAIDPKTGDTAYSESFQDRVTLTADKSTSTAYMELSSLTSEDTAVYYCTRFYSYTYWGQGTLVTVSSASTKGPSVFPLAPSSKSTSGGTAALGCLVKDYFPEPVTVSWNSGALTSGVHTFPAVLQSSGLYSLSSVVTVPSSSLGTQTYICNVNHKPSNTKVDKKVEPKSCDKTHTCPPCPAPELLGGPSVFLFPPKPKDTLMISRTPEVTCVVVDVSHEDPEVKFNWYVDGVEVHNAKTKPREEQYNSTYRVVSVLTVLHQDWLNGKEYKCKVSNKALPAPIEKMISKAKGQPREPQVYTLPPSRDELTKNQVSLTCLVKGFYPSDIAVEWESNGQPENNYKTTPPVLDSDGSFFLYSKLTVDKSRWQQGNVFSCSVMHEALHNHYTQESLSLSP
light: B1 light
notes: also called Ho Ab T335_06M
B26: GpH7-B3 variant T335_15Y/GpL16-k0 (antibody, human IgG1, kappa)
heavy: not shown
light: B1 light
notes: also called Ho Ab T335_15Y

The target of the first experiment is T1, FcγRIa (human, UniProt P12314 16-292).
T1 construct: extracellular domain; Soluble extracellular domain expressed in FreeStyle293 cells, used as analyte in Biacore; also called FcgRI; 1a; not shown: His tag attached to the C terminus
T1 sequence (P12314 16-292): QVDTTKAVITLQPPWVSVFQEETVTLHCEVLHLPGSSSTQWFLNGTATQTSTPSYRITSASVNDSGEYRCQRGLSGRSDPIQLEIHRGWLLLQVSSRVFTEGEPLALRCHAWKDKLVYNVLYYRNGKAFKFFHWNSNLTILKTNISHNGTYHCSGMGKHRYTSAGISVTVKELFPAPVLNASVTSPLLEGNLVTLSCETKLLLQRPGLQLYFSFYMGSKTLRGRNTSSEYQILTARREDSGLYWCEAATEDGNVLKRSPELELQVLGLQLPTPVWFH
Kind of experiment: SPR (Biacore); He Ab vs HeCon Ab GpH7-A5/GpH7-B3/GpL16-k0. Here is the method: Analysis of interaction between objective antibody and the FcγR was carried out using Biacore T100 (GE Healthcare). HBS-EP+ (GE Healthcare) was used as the running buffer, and the measurement temperature was set to 25° C. Chips produced by immobilizing the antigen peptide by the amine coupling method to a Series S Sencor Chip CM5 (GE Healthcare), or alternatively, chips produced by allowing preliminarily biotinylated antigen peptides to interact with and immobilize onto a Series S Sensor Chip SA (certified) (GE Healthcare) were used. Antibodies of interest were captured onto an antigen peptide-immobilized chip, and allowed to interact to each FcγR diluted with running buffer. To regenerate and repeatedly use the chip, the antibodies captured on the chip were washed off by reacting 10 mM glycine-HCl, pH 1.5.
(Surface plasmon resonance follows binding to a sensor surface in real time, without labels.)
For B1, the He/Con_1a is 107 relative binding, control = 100.
In the case of B2, the He/Con_1a was 107 relative binding, control = 100.
The same measure, in the same setting: in the case of B3 it was 107 relative binding, control = 100.
The same measure, in the same setting: under B4 stands 104 relative binding, control = 100.
The same measure, in the same setting: in the case of B5 it was 105 relative binding, control = 100.
Consider B6, for which the He/Con_1a is 102 relative binding, control = 100.
Same read-out and setting: under B7 stands 102 relative binding, control = 100; under B8, 109 relative binding, control = 100.
Consider B9, for which the He/Con_1a is 101 relative binding, control = 100.
The same measure, in the same setting: under B10 stands 114 relative binding, control = 100.
Take B11: the He/Con_1a is 110 relative binding, control = 100.

Another experiment deals with T1, FcγRIa. Briefly: SPR (Biacore); Ho Ab vs HoCon Ab GpH7-B3/GpL16-k0. Put shortly:
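FcγR flowed over antibodies bound to immobilized antigen peptide (CM5 or SA chip), 25° C, HBS-EP+.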
For the molecule B12, the Ho/Con_1a is 104 relative binding, control = 100.
On to B13, for which the Ho/Con_1a was 105 relative binding, control = 100.
As for B14, the Ho/Con_1a is 96.5 relative binding, control = 100.
On the same count and under the same terms, under B15 stands 103 relative binding, control = 100.
In the case of B16, the Ho/Con_1a was 106 relative binding, control = 100.
The same measure, in the same setting: under B17 stands 104 relative binding, control = 100; under B18, 108 relative binding, control = 100.
Same read-out and setting: in the case of B19 it was 105 relative binding, control = 100.
With B20, the Ho/Con_1a is 105 relative binding, control = 100.
The same measure, in the same setting: under B21 stands 106 relative binding, control = 100.
On the same count and under the same terms, in the case of B22 it was 105 relative binding, control = 100; in that of B23, 107 relative binding, control = 100.
Turning to B24, the Ho/Con_1a was 91.2 relative binding, control = 100.
Still for that read-out and setting: in the case of B25 it was 106 relative binding, control = 100; in that of B26, 106 relative binding, control = 100.

For the origin of these results see patent publication US20150344570A1 (published 2015).
